The values that follow come from the supplement of paper PMC9170038.

In this series the test system is MS2 coat protein. As to the kind of experiment: apparent KD of MS2 coat protein; designed switch direction (-1 OFF switch, 1 ON switch): -1; higher = weaker reporter binding. The method in brief: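 RNA switches sharing common flanks were transcribed by stalled E. coli RNA polymerase on Illumina chips. A doubling series of SNAP-549-labelled MS2 coat protein, from 0.7 or 1.5 nM to 3 µM, was applied in Tris-HCl pH 7.5 buffer with KCl, MgCl2, BSA, DTT, tRNA and Tween-20. Each step lasted 0.8–1.5 h at the bottom of the series and 10–20 min at the top. Normalised cluster fluorescence was curve-fitted, giving apparent KD as the per-design median over clusters.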

Setting [1] is: Eterna round: R95, input ligand: FMN 200 uM.
[2] abbreviates: Eterna round: R95, input ligand: microRNA oligo, concentration not stated.
Where [3] appears, read: Eterna round: R95, input ligand: none.
The mark [4] stands for this setting: input ligand: microRNA oligo, concentration not stated.

“GAUUAUGCGAGCUUUAGGGACAUGAGGAUCACCCAUGUUCGUCUUAUUGGUCUGAAUGCACUGACAUACCUAAAUCU [JMF 76] (puzzle: Sensor v3, turn-off variant 1)”: the “apparent KD of MS2 coat protein” value under setting [1] turned out to be 18.7 nM, the “apparent KD of MS2 coat protein” value under setting [2] was 24.2 nM and the “apparent KD of MS2 coat protein” value under setting [3] came out at 17.5 nM.
“GAUUAUGCGAGCUUUAGGGACAUGAGGAUCACCCAUGUUCGUCUUGUUGAUCUAGGUGCACUAACAUACCUAAAUCU [JMF 33] (puzzle: Sensor v3, turn-off variant 1)”: the “apparent KD of MS2 coat protein” value was determined as 24.7 nM under setting [1], 28.7 nM under setting [2] and 22.6 nM under setting [3].
As to “GCAAAAUAUCAGGAUAUGACUAGCUGCGGCUAGUCAGAAGGGAUAACAUGAGGAUCACCCAUGUGAUAAAGUGU [JR_Ex6_Sub029] (Eterna round: R97, puzzle: Exclusion 6)”, the “apparent KD of MS2 coat protein” value was 66.7 nM (input ligand: FMN 200 uM) and 60.4 nM (input ligand: none).
For “GCAAAAUAUCAGGAUAUGACUUUUUGCGUUAAGUCAGAAGGGAUAACAUGAGGAUCACCCAUGUGAUAUAGUGU [JR_Ex6_Sub031] (Eterna round: R97, puzzle: Exclusion 6)”, the “apparent KD of MS2 coat protein” value was 261 nM (input ligand: FMN 200 uM) and 177 nM (input ligand: none).
Take “GCAAGCAGCUUGGAAUGAGACAUGAGGAUCACCCAUGUUCAGCACAAAGCCUUCAAUCAUCAGCUCGAAAGUAAAUG [Eternabot (L2) Solution 16] (Eterna round: R97, puzzle: Sensor, turn-off variant 1)”: the “apparent KD of MS2 coat protein” value by setting is: (input ligand: FMN 200 uM) 14.7 nM; (input ligand: none) 16.3 nM.
For “GCAAGCUUUUUGGUUUUCAACAUGAGGAUCACCCAUGUUCGUCUUGUGCUCGGGCUUGGGCGGUGUCCGGGUUUGGG [Default title] (Eterna round: R97, puzzle: Sensor, turn-off variant 1)”, the “apparent KD of MS2 coat protein” value reads like this: (input ligand: FMN 200 uM) 45.8 nM; (input ligand: none) 48.5 nM.
“GCAAGUUUUUUGUUUUUUAACAUGAGGAUCACCCAUGUAUUUUUAUAGUAUGUGUGAUUAAGAUCUUGUGGUCUUAG [JR_SV3TOV1_Sub101] (puzzle: Sensor v3, turn-off variant 1)”: the “apparent KD of MS2 coat protein” value by setting is: under setting [1], 59.1 nM; under setting [2], 92.2 nM; under setting [3], 62.9 nM.
For “GCACGGAAUGCAGGAUAUCUGUGCGAUUAGCUCAGAGAAGGGCACAUGAGGAUCACCCAUGUGUAUAAAACACAAAAUCCGUGC [Eli exng1 - 067] (Eterna round: R96, puzzle: Exclusion NG 1)”, the “apparent KD of MS2 coat protein” value runs as follows: (input ligand: FMN 200 uM) 13.5 nM; under setting [4], 7.71 nM; (input ligand: none) 13.8 nM.
“GCACGGAGUGUAGGAUAUCUGUGCGAUUAGCUCAGAGAAGGACACAUGAGGAUCACCCAUGUGUUCCACGGAAACGUACCGUGC [Eli exng1 - 050] (Eterna round: R96, puzzle: Exclusion NG 1)”: the “apparent KD of MS2 coat protein” value came to 11.2 nM (input ligand: FMN 200 uM), 8.87 nM under setting [4] and 12.5 nM (input ligand: none).
Take “GCACGGAGUGUAGGAUAUCUGUGCGAUUAGCUCAGAGAAGGACACAUGAGGAUCACCCAUGUGUUCCUCGGAAACGAACCGUGC [Eli exng1 - 051] (Eterna round: R96, puzzle: Exclusion NG 1)”: the “apparent KD of MS2 coat protein” value by setting is: (input ligand: FMN 200 uM) 32.2 nM; under setting [4], 10.9 nM; (input ligand: none) 14 nM.
As to “GCACGGAUGGUAGGAUAUCAGUGCGAUUAGCUCUGAGAAGGACCACAUGAGGAUCACCCAUGUACCUCAAUUAUCCUUCCGUGC [Eli exng1 - 022] (Eterna round: R96, puzzle: Exclusion NG 1)”, the “apparent KD of MS2 coat protein” value is, setting by setting: (input ligand: FMN 200 uM) 13.8 nM; under setting [4], 11.3 nM; (input ligand: none) 17.7 nM.
Consider “GCACGGGUGGUAGGAUAUCCUUGCGAUUAGCAAGGAGAAGGACCACAUGAGGAUCACCCAUGUACCUCAAUUAUCCUUCCGUGC [Eli exng1 - 024] (Eterna round: R96, puzzle: Exclusion NG 1)”, for which the “apparent KD of MS2 coat protein” value (input ligand: FMN 200 uM) worked out at 16.8 nM, the “apparent KD of MS2 coat protein” value under setting [4] is 10.4 nM and the “apparent KD of MS2 coat protein” value (input ligand: none) was 14.5 nM.
As to “GCACUGCGAGGAUAUACAUGAGGAUCACCCAUGUGUCGGCAGACAUGUUAUUUCUAAUGUAGAAGGCGCGUAAA [JR_Ex3_Sub002] (Eterna round: R97, puzzle: Exclusion 3)”, the “apparent KD of MS2 coat protein” value reads like this: (input ligand: FMN 200 uM) 340 nM; (input ligand: none) 68.8 nM.
As to “GCACUGCGAGGAUAUACAUGAGGAUCACCCAUGUGUCGGCAGCCACGGUAGUACAAGUGUAGAAGGCGCGUUAG [EX3 #47] (Eterna round: R97, puzzle: Exclusion 3)”, the “apparent KD of MS2 coat protein” value runs as follows: (input ligand: FMN 200 uM) 140 nM; (input ligand: none) 69.1 nM.
“GCAGCAACUCUAAUCAACCAAACAUGAGGAUCACCCAUGUCUCAGGAUAUGGUCUGGAUUACAGGCCAGAAGGGAGAAAGCUGC [Eli exng3 - 044] (Eterna round: R96, puzzle: Exclusion NG 3)”: the “apparent KD of MS2 coat protein” value is, setting by setting: (input ligand: FMN 200 uM) 9 nM; under setting [4], 9.77 nM; (input ligand: none) 13.4 nM.
As for “GCAGCAUAGUUUACUAACUGUUACAUGAGGAUCACCCAUGUUCAGGAUAUGGUCUGGAUUACAGGCCAGAAGGGAGCAAGCUGC [Eli exng3 - 027] (Eterna round: R96, puzzle: Exclusion NG 3)”, the “apparent KD of MS2 coat protein” value by setting is: (input ligand: FMN 200 uM) 13.3 nM; under setting [4], 10.7 nM; (input ligand: none) 13.8 nM.
For “GCAGCAUAGUUUACUAACUGUUACAUGAGGAUCACCCAUGUUUAGGAUAUGGUCUGGAUUACAGGCCAGAAGGGAACAAGCUGC [Eli exng3 - 032] (Eterna round: R96, puzzle: Exclusion NG 3)”, the “apparent KD of MS2 coat protein” value under setting [4] came to 10.3 nM.
Take “GCAGCUAGUUCAGGAUAUCAGCACGUUUAGUGCUGAGAAGGGAACAUGAGGAUCACCCAUGUGAUCAAUGCUGCAAUUUUAAUU [ENG1/12-A2] (Eterna round: R96, puzzle: Exclusion NG 1)”: the “apparent KD of MS2 coat protein” value was found to be 1470 nM (input ligand: FMN 200 uM), 776 nM under setting [4] and 717 nM (input ligand: none).
In the case of “GCAGGCGUCUAGGCUCGUCUUAUUUUGAGAAGAUUGAUAACAUGAGGAUCACCCAUGUUUGUGGGAGAGUUGGAGUG [JR_SV3TOV2_Sub014] (puzzle: Sensor v3, turn-off variant 2)”, the “apparent KD of MS2 coat protein” value was determined as 159 nM under setting [1], 258 nM under setting [2] and 209 nM under setting [3].
On to “GCAUACUAAGGAUAUACAUGAGGAUCACCCAUGUUGCCAAAUGGCAGCAUCACCUGGAGUAGAAGGUAGAUGUA [Atanbi] (puzzle: Exclusion 3)”, for which the “apparent KD of MS2 coat protein” value under setting [2] amounted to 29.7 nM.
On the same count and under the same terms, under “GCAUCCAAAGUGAGGAUAUACCUCUGGAUACAGAGGUAGAAGGCACAUGAGGAUCACCCAUGUUCCUAGGAUGC [Fiskers BMX 4 - 38] (puzzle: Brourd's mod of Exclusion 4)” stands 13.3 nM; under “GCAUCCAAAGUGAGGAUAUACCUCUGGAUACAUAGGUAGAAGGCACAUGAGGAUCACCCAUGUUCCUAGGAUGC [Fiskers BMX 4 - 32] (puzzle: Brourd's mod of Exclusion 4)”, 25 nM.
In the case of “GCAUCCAUAGUGAGGAUAUACCUCUGGAUACAUAGGUAGAAGGCACAUGAGGAUCACCCAUGUUCCUAGGAUGC [Fiskers BMX 4 - 33] (puzzle: Brourd's mod of Exclusion 4)”, the “apparent KD of MS2 coat protein” value under setting [2] was determined as 16.9 nM.
Regarding “GCAUUACAUGAGGAUCACCCAUGUGAGGAUAUUAGGGUCGCAAGCACGUCUAGCAGACUGAGAAGGCACGGGUG [Eternabot (L1) Solution 45] (Eterna round: R97, puzzle: Exclusion 1)”, the “apparent KD of MS2 coat protein” value is, setting by setting: (input ligand: FMN 200 uM) 139 nM; (input ligand: none) 192 nM.
Take “GCAUUGAGUGUGAGGAUAUGCUGGUCCUUGGAUCAGCAGAAGGCACAUGAGGAUCACCCAUGUGAAUACAAUGC [JL bmx4 3.13] (puzzle: Brourd's mod of Exclusion 4)”: the “apparent KD of MS2 coat protein” value under setting [2] turned out to be 18.9 nM.
The same measure, in the same setting: under “GCAUUUGAGCAGGAUAUAGCCUGAACAUAAUGGUUAGAAGGGCUCACAUGAGGAUCACCCAUGUGGUGUCCUAA [Rateria] (puzzle: Exclusion 6)” stands 11.6 nM.
Consider “GCCGGAGCAGGAUAUCUAAUAUAUCACAUGAGGAUCACCCAUGUCCAGCGAAAGCUGGAGGGAGAAGGGCUCUGGC [Fiskers Ex 5 - 22] (Eterna round: R96, puzzle: Exclusion 5)”, for which the “apparent KD of MS2 coat protein” value runs as follows: (input ligand: FMN 200 uM) 47 nM; under setting [4], 99.1 nM; (input ligand: none) 143 nM.
As to “GCCGGAGCAGGAUAUCUAAUAUAUCACAUGAGGAUCACCCAUGUCCAGCGAAAGCUGGAGGGAGAAGGGCUCUGGC [Fiskers Ex 5 - 22] (puzzle: Exclusion 5)”, the “apparent KD of MS2 coat protein” value runs as follows: under setting [1], 59.7 nM; under setting [2], 133 nM; under setting [3], 132 nM.
As for “GCCGGAUUUGUGAGGAUAUACCUAUGGAUACAUAGGUAGAAGGCACAUGAGGAUCACCCAUGUACCUCUCCGGC [JL-BMX4-4.19 Eli mod] (Eterna round: R97, puzzle: Brourd's mod of Exclusion 4)”, the “apparent KD of MS2 coat protein” value came out at 91.9 nM (input ligand: FMN 200 uM) and 19.5 nM (input ligand: none).
Taken in the same sequence, the figures for “GCCGGCUGAGGAUAUACAUGAGGAUCACCCAUGUGCUUCAGCCGGGAGACCGGCAUUGGUAGAAGGCAGCCGGC [Mod of lroppy 21 - Jieux - Exclusion 3] (Eterna round: R97, puzzle: Exclusion 3)” were 14.5 nM and 14.7 nM.
As to “GCCGGUCAUGUAGGAUAUGGCCGGCGGUGCCGGCCAGAAGGACAUGAGGAUCACCCAUGUGCCGGCCUUUGGCCGGCACCCGGC (Eterna round: R96, puzzle: Exclusion NG 1)”, the “apparent KD of MS2 coat protein” value was determined as 10.3 nM (input ligand: FMN 200 uM), 8.76 nM under setting [4] and 17.2 nM (input ligand: none).
